The RNAGym collection of RNA variant scans (doi:10.7554/elife.90254)

B1: OR4K15 (parent)
chain: GUUAACGGUCAUAGGCCAUGGAAACUAGGAGCACCAUUUCGCUGCCAGUGAAGAAAUGAACAAAGAAAAUCUGGGCCAGGCAGGCAUCAAAAGAAAUAGUCUUGCGCUCAACCAGAAAGUCUGUAAUCAUUUUAAGGGUA

Variants of: B1
Test: self-cleavage, relative activity (ratio to wild type); higher = more cleavage; in vitro, sequencing; the parent is a self-cleaving ribozyme

| Variant | self-cleavage |
| --- | --- |
| U12G A82U | 0.3 |
| A11G A33U | 0.86 |
| A56G A86C | 1.48 |
| U2C A62G | 0.36 |
| U72C A118G | 0.1 |
| C71U A135C | 0.42 |
| G53A A90G | 0.74 |
| U26A U130C | 0.54 |
| U26C U130C | 0.3 |
| C107G | 0.02 |
| A18G A86G | 1.99 |
| G14A A129U | 0.41 |
| G44U A59G | 1.67 |
| A64U A114G | 0.46 |
| U39C A135U | 1.73 |
| A33U C35U | 1.93 |
| A64G A96G | 1.92 |
| A56G A66G | 0.93 |
| G20U A47G | 1.08 |
| A13G U132C | 0.41 |
| U100C U132G | 2.82 |
| U120C | 0.8 |
| U43C A66G | 1.29 |
| G8A U9C | 1.16 |

| Variant | self-cleavage |
| --- | --- |
| A11C A78C | 0.16 |
| A114U A140U | 0.1 |
| A78U A135G | 0.3 |
| A92C U131C | 1.35 |
| A54U | 1.2 |
| G65A U124A | 1.36 |
| G115A A118G | 0.04 |
| U9C G99U | 0.63 |
| G73A G136U | 0.22 |
| A114G U131C | 0.15 |
| U38A U43A | 1.61 |
| C77A A89G | 0.61 |
| A54U A64G | 1.55 |
| A66G U100C | 2.05 |
| U2C A69G | 0.91 |
| A95G A118U | 1.09 |
| U108G U122C | 0.02 |
| G20U U72C | 0.14 |
| A36U A96G | 1.74 |
| G44C | 1.33 |
| G73A A116U | 0.03 |
| A92G A126G | 1.18 |
| U2C U122G | 1.35 |
| A69G A96C | 1.58 |

| Variant | self-cleavage |
| --- | --- |
| U70A A110U | 0.18 |
| A13G U122C | 0.76 |
| A33C A140U | 1.4 |
| G21A A90G | 0.38 |
| A94G U108C | 0.01 |
| A96U U127A | 2.6 |
| A62G A89G | 0.94 |
| U12C U49C | 0.44 |
| A24U A118G | 0.99 |
| U9C A52G | 1.63 |
| A11G U49C | 0.39 |
| A30G U130C | 0.6 |
| A95G A96C | 0.77 |
| A24C U132C | 1.46 |
| A126G U131G | 1.23 |
| U122A U133C | 2.07 |
| G79U A96U | 0.13 |
| A56G U108C | 0.01 |
| U9A A111U | 0.19 |
| A11G G84U | 0.53 |
| G44A A110G | 0.14 |
| U43C A118C | 1.4 |
| A95G U103A | 1.55 |
| A36G G104A | 0.07 |

| Variant | self-cleavage |
| --- | --- |
| A60G U108C | 0.03 |
| U38C U87A | 1.6 |
| G50A A63G | 1.21 |
| A64G A126G | 1.05 |
| A24G A116U | 0.46 |
| C32U A111G | 0.01 |
| A54G A62U | 1.14 |
| G1U A69U | 1.22 |
| U38C A52G | 1.53 |
| A64U A96C | 1.28 |
| A56G A94U | 1.08 |
| A33U A140G | 2.18 |
| U72A | 0.18 |
| A5G A52C | 1.39 |
| A94G A111U | 0.06 |
| A118C U130C | 0.93 |
| G75U U127C | 0.11 |
| U37C U103A | 0.5 |
| C45U U49G | 1.93 |
| A56G A96U | 1.64 |
| A11C U122C | 1.46 |
| A22U A117G | 1.06 |
| U3C A52G | 1.1 |
| A82U U87C | 0.22 |

| Variant | self-cleavage |
| --- | --- |
| A82G A126C | 0.41 |
| U19C A22G | 1.12 |
| U39A C85G | 1.07 |
| U26A C81U | 0.19 |
| A30G A51G | 1.07 |
| C35U A111U | 0.05 |
| A68G A116U | 0.21 |
| A125G U132C | 0.52 |
| U72C A111G | 0.02 |
| A86U U124A | 1.02 |
| A30G A78U | 0.41 |
| A36U A91G | 1.42 |
| A30G A33G | 1.17 |
| A51G U103C | 1.09 |
| A27U U120A | 1.85 |
| A78U A91U | 0.8 |
| G75C U103C | 0.12 |
| A52G U127A | 1.73 |
| A36G A135G | 1.59 |
| U120C A129G | 0.63 |
| A59G G104A | 0.06 |
| U70C A117U | 0.59 |
| A13U A55G | 0.85 |
| A56G A86G | 0.8 |

| Variant | self-cleavage |
| --- | --- |
| A117G C128A | 1.07 |
| C121U U127C | 1.46 |
| A60G A114G | 0.31 |
| G119C | 1.04 |
| A33G A129C | 0.63 |
| A13G U100C | 1.34 |
| U108A U132C | 0.03 |
| A91G A96G | 1.3 |
| U39A A126C | 0.87 |
| A27G A47U | 0.95 |
| A64U U108A | 0.02 |
| A30C A56G | 1.27 |
| U2C A27G | 0.85 |
| A78G U87C | 0.05 |
| A5C U132C | 1.97 |
| A98C U122C | 2.2 |
| U49A U57C | 1.11 |
| G73A C121G | 0.45 |
| U97C A116G | 0.77 |
| A11U A117G | 1.41 |
| U37C A59U | 1.91 |
| U49A A111C | 0.01 |
| A60U A63G | 0.71 |
| U12A A110U | 1.63 |

| Variant | self-cleavage |
| --- | --- |
| A51U U132G | 1.49 |
| A62G A78U | 0.19 |
| C42A G79U | 0.02 |
| U87A A95G | 0.76 |
| G44A U124A | 1.15 |
| A27U G83A | 1.31 |
| A95C | 1.06 |
| U43C A82G | 0.36 |
| A5U A140G | 1.09 |
| U49C U122G | 1.54 |
| A66G A125G | 0.25 |
| U57C G75A | 0.12 |
| A23U A67G | 1.73 |
| G58U A111G | 0.02 |
| A82G U120C | 0.11 |
| C71U U124C | 0.06 |
| C61U G138A | 1.4 |
| U57C U108C | 0.01 |
| U122C A134U | 1.75 |
| A67G U70G | 0.68 |
| U70A U127C | 0.34 |
| A36G A89U | 2.21 |
| A96G U102G | 1.08 |
